# Tests used:
# [1] = molecular target: Grb2 SH2 (UniProt P62993); assay: SH2 binding enrichment of the phosphorylated peptide, bacterial display (enrichment ratio); higher = better substrate or ligand; peptides without Tyr show the background
# [2] = molecular target: c-Src SH2; assay: as above
# [3] = molecular target: SHP2-C SH2; assay: as above
# [4] = molecular target: Jak2 (UniProt O60674); assay: phosphorylation enrichment, bacterial display (enrichment ratio); higher = better substrate or ligand; peptides without Tyr show the background
# Jak2, sequence (O60674 whole entry, looked up): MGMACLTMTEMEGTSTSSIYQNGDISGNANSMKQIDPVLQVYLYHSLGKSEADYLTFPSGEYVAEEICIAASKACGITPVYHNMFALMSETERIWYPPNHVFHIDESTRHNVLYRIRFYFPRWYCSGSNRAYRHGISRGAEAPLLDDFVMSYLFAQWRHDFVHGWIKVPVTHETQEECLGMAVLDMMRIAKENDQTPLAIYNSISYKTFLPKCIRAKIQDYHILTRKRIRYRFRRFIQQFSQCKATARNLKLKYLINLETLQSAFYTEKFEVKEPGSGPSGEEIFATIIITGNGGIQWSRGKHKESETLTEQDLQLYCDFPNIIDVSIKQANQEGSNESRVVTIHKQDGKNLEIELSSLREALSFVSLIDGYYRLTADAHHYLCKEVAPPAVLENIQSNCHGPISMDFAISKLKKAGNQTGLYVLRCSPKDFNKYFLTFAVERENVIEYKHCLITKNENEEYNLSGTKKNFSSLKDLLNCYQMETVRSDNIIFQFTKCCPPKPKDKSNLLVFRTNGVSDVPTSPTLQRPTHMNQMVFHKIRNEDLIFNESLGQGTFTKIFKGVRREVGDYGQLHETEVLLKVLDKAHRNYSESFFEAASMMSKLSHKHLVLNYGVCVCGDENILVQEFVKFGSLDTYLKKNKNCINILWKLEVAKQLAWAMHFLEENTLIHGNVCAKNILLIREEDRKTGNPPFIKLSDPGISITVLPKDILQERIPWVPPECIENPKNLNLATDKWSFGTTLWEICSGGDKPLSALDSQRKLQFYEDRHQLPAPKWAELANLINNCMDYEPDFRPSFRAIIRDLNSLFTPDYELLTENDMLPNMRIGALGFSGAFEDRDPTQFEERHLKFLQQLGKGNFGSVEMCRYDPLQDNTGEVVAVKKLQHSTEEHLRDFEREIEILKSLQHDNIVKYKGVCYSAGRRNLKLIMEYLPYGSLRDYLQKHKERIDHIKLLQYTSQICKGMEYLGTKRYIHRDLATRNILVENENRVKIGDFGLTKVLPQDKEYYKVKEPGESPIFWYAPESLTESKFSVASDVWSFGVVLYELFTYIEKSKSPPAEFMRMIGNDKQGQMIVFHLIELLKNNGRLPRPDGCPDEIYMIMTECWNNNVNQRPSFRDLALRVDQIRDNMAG
# [5] = molecular target: Hck (UniProt P08631); assay: as above
# Hck, sequence (P08631 whole entry, looked up): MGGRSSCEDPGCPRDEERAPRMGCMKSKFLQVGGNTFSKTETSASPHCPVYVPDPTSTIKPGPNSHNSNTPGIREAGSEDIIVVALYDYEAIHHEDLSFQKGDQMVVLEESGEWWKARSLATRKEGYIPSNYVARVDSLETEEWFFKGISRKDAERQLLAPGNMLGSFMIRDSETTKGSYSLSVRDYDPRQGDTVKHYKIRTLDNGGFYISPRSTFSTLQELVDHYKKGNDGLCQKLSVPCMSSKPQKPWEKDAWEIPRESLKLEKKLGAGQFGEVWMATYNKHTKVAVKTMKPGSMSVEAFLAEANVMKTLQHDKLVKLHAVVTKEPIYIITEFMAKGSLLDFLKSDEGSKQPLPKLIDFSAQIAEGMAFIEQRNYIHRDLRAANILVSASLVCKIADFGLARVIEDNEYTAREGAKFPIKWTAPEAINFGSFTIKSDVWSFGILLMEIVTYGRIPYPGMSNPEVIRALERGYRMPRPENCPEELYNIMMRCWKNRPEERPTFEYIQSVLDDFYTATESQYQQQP
# [6] = molecular target: Fes (UniProt P07332); assay: as above
# Fes, sequence (P07332 whole entry, looked up): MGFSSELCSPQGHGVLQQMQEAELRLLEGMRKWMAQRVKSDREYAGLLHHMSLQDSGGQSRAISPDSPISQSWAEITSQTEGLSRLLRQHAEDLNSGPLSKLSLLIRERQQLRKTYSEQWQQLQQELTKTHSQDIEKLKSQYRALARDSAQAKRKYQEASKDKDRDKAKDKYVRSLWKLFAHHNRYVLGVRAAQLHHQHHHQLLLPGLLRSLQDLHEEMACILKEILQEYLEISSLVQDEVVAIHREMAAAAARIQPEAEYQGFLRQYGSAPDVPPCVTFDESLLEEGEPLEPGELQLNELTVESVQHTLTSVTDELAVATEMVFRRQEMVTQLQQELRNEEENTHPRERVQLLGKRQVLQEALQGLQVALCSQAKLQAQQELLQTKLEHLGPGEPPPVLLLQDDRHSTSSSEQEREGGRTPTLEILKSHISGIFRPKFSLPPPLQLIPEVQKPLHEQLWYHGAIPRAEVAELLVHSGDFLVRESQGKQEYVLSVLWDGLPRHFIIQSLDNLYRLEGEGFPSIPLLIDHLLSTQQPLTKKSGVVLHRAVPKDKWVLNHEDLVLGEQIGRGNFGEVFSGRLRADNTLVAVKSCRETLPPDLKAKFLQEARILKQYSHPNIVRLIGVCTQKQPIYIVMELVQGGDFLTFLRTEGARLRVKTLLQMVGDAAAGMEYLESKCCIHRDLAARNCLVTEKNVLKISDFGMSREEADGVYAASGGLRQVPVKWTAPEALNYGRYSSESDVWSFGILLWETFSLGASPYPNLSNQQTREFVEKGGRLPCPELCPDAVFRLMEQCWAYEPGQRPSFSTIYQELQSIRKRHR
# [7] = test system: AncSZ; assay: as above
# [8] = molecular target: FGFR1 (UniProt P11362); assay: as above
# FGFR1, sequence (P11362 whole entry, looked up): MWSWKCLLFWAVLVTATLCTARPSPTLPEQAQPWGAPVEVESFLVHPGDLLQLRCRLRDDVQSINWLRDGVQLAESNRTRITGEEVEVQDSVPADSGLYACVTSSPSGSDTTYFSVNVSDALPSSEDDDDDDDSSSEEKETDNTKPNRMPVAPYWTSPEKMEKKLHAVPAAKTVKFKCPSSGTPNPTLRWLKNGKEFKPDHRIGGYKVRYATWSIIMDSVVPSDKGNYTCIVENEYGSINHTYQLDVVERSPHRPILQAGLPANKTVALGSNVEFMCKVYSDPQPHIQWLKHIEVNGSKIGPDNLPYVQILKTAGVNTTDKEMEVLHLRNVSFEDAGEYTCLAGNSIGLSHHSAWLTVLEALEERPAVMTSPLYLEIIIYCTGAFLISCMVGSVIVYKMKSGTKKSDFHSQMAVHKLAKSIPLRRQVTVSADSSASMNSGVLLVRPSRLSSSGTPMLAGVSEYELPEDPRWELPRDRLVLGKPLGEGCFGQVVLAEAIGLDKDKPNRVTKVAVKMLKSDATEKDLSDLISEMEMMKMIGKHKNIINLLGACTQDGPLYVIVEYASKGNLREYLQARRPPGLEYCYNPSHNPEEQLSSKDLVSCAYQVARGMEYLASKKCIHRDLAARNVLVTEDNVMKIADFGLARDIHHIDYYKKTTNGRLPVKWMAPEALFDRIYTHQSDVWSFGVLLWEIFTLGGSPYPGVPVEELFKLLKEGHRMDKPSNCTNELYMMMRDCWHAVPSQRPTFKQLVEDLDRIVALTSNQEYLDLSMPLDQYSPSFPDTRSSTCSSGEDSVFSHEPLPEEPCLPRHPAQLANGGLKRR
# [9] = molecular target: Fyn (UniProt P06241); assay: as above
# Fyn, sequence (P06241 whole entry, looked up): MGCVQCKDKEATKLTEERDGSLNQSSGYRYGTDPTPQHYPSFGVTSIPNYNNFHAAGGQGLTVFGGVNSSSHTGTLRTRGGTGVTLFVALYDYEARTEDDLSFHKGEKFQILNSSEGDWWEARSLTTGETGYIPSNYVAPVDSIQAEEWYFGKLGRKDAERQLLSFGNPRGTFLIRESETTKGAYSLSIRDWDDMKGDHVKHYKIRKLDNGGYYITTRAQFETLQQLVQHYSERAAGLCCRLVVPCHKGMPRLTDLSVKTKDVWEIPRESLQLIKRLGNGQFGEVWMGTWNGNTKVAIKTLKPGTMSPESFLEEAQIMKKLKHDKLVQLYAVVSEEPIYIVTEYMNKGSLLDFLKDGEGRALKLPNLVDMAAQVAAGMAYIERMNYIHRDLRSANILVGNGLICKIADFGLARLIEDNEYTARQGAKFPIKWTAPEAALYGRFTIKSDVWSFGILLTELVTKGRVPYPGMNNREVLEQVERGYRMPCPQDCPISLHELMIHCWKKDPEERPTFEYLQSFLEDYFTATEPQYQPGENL
# [10] = test system: c-Abl (mouse); assay: as above
# [11] = molecular target: FGFR3 (UniProt P22607); assay: as above
# [12] = test system: c-Src; assay: as above
# [13] = molecular target: MERTK (UniProt Q12866); assay: as above
# [14] = test system: Fer (mouse); assay: as above
# [15] = molecular target: EPHB1 (UniProt P54762); assay: as above
# EPHB1, sequence (P54762 whole entry, looked up): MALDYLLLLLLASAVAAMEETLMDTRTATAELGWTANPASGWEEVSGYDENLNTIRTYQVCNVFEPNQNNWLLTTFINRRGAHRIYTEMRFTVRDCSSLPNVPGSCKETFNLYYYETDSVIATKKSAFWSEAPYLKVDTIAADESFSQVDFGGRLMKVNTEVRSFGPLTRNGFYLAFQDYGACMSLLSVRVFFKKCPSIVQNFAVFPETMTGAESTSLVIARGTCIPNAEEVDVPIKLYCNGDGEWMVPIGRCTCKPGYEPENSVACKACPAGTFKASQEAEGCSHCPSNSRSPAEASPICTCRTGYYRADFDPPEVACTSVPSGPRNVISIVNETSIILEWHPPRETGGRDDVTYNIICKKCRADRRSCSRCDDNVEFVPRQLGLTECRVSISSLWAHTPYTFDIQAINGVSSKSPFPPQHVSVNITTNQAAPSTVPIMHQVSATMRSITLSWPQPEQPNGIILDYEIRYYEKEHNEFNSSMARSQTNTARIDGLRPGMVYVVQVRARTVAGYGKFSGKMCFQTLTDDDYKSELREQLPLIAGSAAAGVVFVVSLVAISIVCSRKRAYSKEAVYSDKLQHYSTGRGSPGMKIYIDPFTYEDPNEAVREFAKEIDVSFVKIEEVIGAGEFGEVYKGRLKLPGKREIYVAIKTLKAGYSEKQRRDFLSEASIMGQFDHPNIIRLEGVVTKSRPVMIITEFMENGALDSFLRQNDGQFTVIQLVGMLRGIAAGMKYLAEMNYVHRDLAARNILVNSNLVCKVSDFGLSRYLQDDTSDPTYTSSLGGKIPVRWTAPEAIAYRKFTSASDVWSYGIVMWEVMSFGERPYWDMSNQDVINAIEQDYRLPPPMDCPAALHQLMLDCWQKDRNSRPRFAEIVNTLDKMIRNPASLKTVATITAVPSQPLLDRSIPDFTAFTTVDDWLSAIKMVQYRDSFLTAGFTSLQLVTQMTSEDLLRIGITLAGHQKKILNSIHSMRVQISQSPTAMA
# [16] = molecular target: EPHB2 (UniProt P29323); assay: as above
# 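Throughout, for SH2 binding enrichment of the phosphorylated peptide, bacterial display: peptide library displayed on the E. coli surface as eCPX fusions, selected cells deep-sequenced, score is each peptide's frequency after selection divided by its frequency in the input.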
# 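Throughout, for phosphorylation enrichment, bacterial display: 11-residue human phosphosite peptides and single-mutation variants displayed on the E. coli surface, counted by deep sequencing, each peptide's frequency after selection divided by its frequency in the unselected input library; frequency after pTyr selection over input frequency; kinase dosed for 20-30% of maximal phosphorylation in three min.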
SH2 binding enrichment [1],SH2 binding enrichment [2],SH2 binding enrichment [3],Sequence,phosphorylation enrichment [4],phosphorylation enrichment [5],phosphorylation enrichment [6],phosphorylation enrichment [7],phosphorylation enrichment [8],phosphorylation enrichment [9],phosphorylation enrichment [10],phosphorylation enrichment [11],phosphorylation enrichment [12],phosphorylation enrichment [13],phosphorylation enrichment [14],phosphorylation enrichment [15],phosphorylation enrichment [16]
1.12,0.667,0.851,GEKKAYVRLAP [RPL23A_Y137],0.468,0.337,0.606,0.548,0.425,0.37,0.628,0.43,0.296,0.373,0.398,0.363,0.323
0.89,0.515,0.873,LAVNPYGPPDL,1.03,0.682,1.23,1.36,0.798,0.708,1.32,0.911,0.611,0.517,0.77,0.846,0.408
0.768,0.563,0.709,SDPIVYTLENI [EMR1_Y534_I533V],1.2,0.676,1.69,1.09,0.553,4.76,0.873,0.755,4.06,0.546,2.35,0.465,0.523
0.878,0.563,0.96,FLGRDYLETLM [DUS3L_Y610_YF],0.748,0.401,0.957,0.849,0.48,0.422,0.685,0.686,0.428,0.471,0.591,0.47,0.459
0.972,3.06,0.639,HDRNTYEKFLE [TF_Y666_G671E_YF],0.859,0.491,1.03,1.07,0.432,0.741,0.561,0.522,0.818,0.848,0.56,0.525,0.64
0.901,0.577,0.833,RFLERYIFNRQ [HLA-DPB1_Y57_E62Q_YF],1.71,0.678,1.63,1.57,0.448,0.535,1.36,0.642,0.893,0.756,0.75,0.603,0.29
0.895,0.678,0.706,SHTPSYCDESL [RITA1_Y109],0.62,0.405,0.831,0.806,0.502,0.405,0.566,0.516,0.403,0.419,0.505,0.462,0.459

# Reference: the supplement of paper PMC10065799, “High-throughput profiling of sequence recognition by tyrosine kinases and SH2 domains using bacterial peptide display” (eLife, 2023)
